Columns and labels:
[1] = test system: 2G12 (anti-HIV gp120 broadly neutralizing antibody); experiment: pulldown; conditions: 2'-F pyrimidines, qPCR bead assay as glyco-RNA/DNA hybrid
[2] = test system: 2G12 (anti-HIV gp120 broadly neutralizing antibody); experiment: FP filter; conditions: 2'-F pyrimidines; every U is 2'-F-5-ethynyl-U clicked to Man9-cyclohexyl azide (4 glycans); nitrocellulose filter binding, 32P RNA not gel purified; 20 mM Tris pH 7.5, 150 mM NaCl, 2 mM MgSO4; Fbmax 7.0%
[3] = test system: 2G12 (anti-HIV gp120 broadly neutralizing antibody); experiment: filter; conditions: 2'-F pyrimidines, every U is 2'-F-5-ethynyl-U clicked to Man9-cyclohexyl azide (3 glycans)

Question: For “GGAGAGAAGGAGGGAAGAGAGAAAAAAAACAUAGGGAACCCAGGUGAUUGGGGCAAGCGACACAAAGCCCGG [15F3]”, which Kd ([1]; every U is 2'-F-5-ethynyl-U clicked to Man9-cyclohexyl azide (4 glycans), room temperature, Fbmax 3.8%) is on record?
Answer: 19 nM

Question: What about the Kd [2] of the same sequence?
Answer: 13 nM

Question: Which results are given for “GGAGAGAAGGAGGGAAGAGAGAAAAAAUCGACGGAACAGGGGCCCCCUGUGGAAAGCGACACAAAGCCCGG [15F1]”?
Answer: Kd ([3]; 20 mM Tris pH 7.5, 150 mM NaCl, 2 mM MgSO4, not gel purified, Fbmax 23%): 40 nM; Kd ([1]; every U is 2'-F-5-ethynyl-U clicked to Man9-cyclohexyl azide (3 glycans), room temperature, Fbmax 7.9%): 40 nM

Question: Which Kd ([3]; gel purified and refolded, Fbmax 51%) does the source give for “GGAGAGAAGGAGGGAAGAGAGAAAAAAAAAAGCGCCCAGGUGAUUGGGCGCAAGCGACACAAAGCCCGG [15F3-M1-Mod]” here?
Answer: 36 nM

Question: Which Kd ([1]; every U is 2'-F-5-ethynyl-U clicked to Man9-cyclohexyl azide (3 glycans), Fbmax 1.1%) does the source give for “GGAGAGAAGGAGGGAAGAGAGAAAAAAAACAGAGGGAACCCAGGUGAUUGGGGCAAGCGACACAAAGCCCGG [15F3-M1]” here?
Answer: 31 nM
